As usually defined, the EC50 is the concentration giving half of the maximal effect. A high value points to lower potency in that assay.

From patent publication US20110111461A1 (Hoffmann-La Roche, published 2011) come the findings set out here.

Residue numbers refer to the chain shown, from its start.

To fix the notation:
B1: chimeric rat-human ICR62 antibody (antibody, V domains shown)
VH: QVNLLQSGAALVKPGASVKLSCKGSGFTFTDYKIHWVKQSHGKSLEWIGYFNPNSGYSTYNEKFKSKATLTADKSTDTAYMELTSLTSEDSATYYCTRLSPGGYYVMDAWGQGASVTVSS
VL: DIQMTQSPSFLSASVGDRVTINCKASQNINNYLNWYQQKLGEAPKRLIYNTNNLQTGIPSRFSGSGSGTDYTLTISSLQPEDFATYFCLQHNSFPTFGAGTKLELKR
notes: also called ch-ICR62; chimeric ICR62
B2: humanized ICR62 antibody I-HHB / I-KC (not glycoengineered) (antibody, human IgG1, V domains shown)
VH: QVQLVQSGAEVKKPGSSVKVSCKGSGFTFTDYKIHWVRQAPGQGLEWMGYFNPNSGYSTYAQKFQGRVTITADKSTSTAYMELSSLRSEDTAVYYCARLSPGGYYVMDAWGQGTTVTVSS
VL: DIQMTQSPSSLSASVGDRVTITCRASQGINNYLNWYQQKPGKAPKRLIYNTNNLQTGVPSRFSGSGSGTEFTLTISSLQPEDFATYYCLQHNSFPTFGQGTKLEIKR
notes: also called I-HHB/KC
B3: humanized ICR62 antibody I-HLA2 / I-KC (antibody, human IgG1, V domains shown)
VH: QVQLVQSGAEVKKPGASVKVSCKASGFTFTDYYMHWVRQAPGQGLEWMGWINPNSGYSTYNEKFQGQVTISADKSISTAYLQWSSLKASDTAMYYCARLSPGGYYVMDAWGQGTTVTVSS
VL: B2 VL
B4: I-HHC heavy chain combined with the chimeric ICR62 light chain (rVL) (antibody, human IgG1, V domains shown)
VH: B2 VH with A61N, Q62E, Q65K, G66S
VL: B1 VL
notes: also called I-HHC / rVL
B5: humanized ICR62 antibody I-HLA7 / I-KC (antibody, human IgG1, V domains shown)
VH: B3 VH with V2M, A9P, A16T, Y33K, M34I, P41R, G44R, M48I
VL: B2 VL
B6: humanized ICR62 antibody I-HLA6 / I-KC (antibody, human IgG1, V domains shown)
VH: B3 VH with V2M, A9P, A16T
VL: B2 VL
B7: humanized ICR62 antibody I-HLA1 / I-KC (antibody, human IgG1, V domains shown)
VH: B3 VH with N61S, E62P, K63S
VL: B2 VL
B8: humanized ICR62 antibody I-HLA / I-KB (antibody, human IgG1, V domains shown)
VH: QVQLVQSGAEVKKPGASVKVSCKASGFTFTDYYMHWVRQAPGQGLEWMGWINPNSGYSTYAQKFQGRVTMTADTSISTAYMELSRLRSDDTAVYYCARLSPGGYYVMDAWGQGTTVTVSS
VL: B2 VL with R24K, G28N, F71Y
B9: humanized ICR62 antibody I-HLA8 / I-KC (antibody, human IgG1, V domains shown)
VH: B2 VH with V2M, A9P, S16T, G24A
VL: B2 VL
B10: humanized ICR62 antibody I-HLA4 / I-KC (antibody, human IgG1, V domains shown)
VH: B3 VH with F27Y
VL: B2 VL
B11: humanized ICR62 antibody I-HLA5 / I-KC (antibody, human IgG1, V domains shown)
VH: B3 VH with V2M, A9P, A16T, N61S, E62P, K63S
VL: B2 VL
B12: humanized ICR62 antibody I-HHF / I-KC (antibody, human IgG1, V domains shown)
VH: B2 VH with T59N
VL: B2 VL
B13: humanized ICR62 antibody I-HHC / I-KB (antibody, human IgG1, V domains shown)
VH: B2 VH with A61N, Q62E, Q65K, G66S
VL: B2 VL with R24K, G28N, F71Y
B14: humanized ICR62 antibody I-HLA / I-KA (antibody, human IgG1, V domains shown)
VH: B8 VH
VL: B2 VL with F71Y
B15: humanized ICR62 antibody I-HHG / I-KC (antibody, human IgG1, V domains shown)
VH: B2 VH with S58A
VL: B2 VL
B16: humanized ICR62 antibody I-HLA9 / I-KC (antibody, human IgG1, V domains shown)
VH: B2 VH with Q1E, S16E, V18L, V20I, F27Y, T28S
VL: B2 VL
B17: humanized ICR62 antibody I-HLA3 / I-KC (antibody, human IgG1, V domains shown)
VH: B3 VH with F27Y, N61S, E62P, K63S
VL: B2 VL
B18: chimeric ICR62 heavy chain (rVH) combined with the I-KB light chain (antibody, human IgG1, V domains shown)
VH: B1 VH
VL: B2 VL with R24K, G28N, F71Y
notes: also called rVH / I-KB
B19: humanized ICR62 antibody I-HHD / I-KC6 (antibody, human IgG1, V domains shown)
VH: B2 VH with G24A
VL: B2 VL with N52S
B20: humanized ICR62 antibody I-HHD / I-KC9 (antibody, human IgG1, V domains shown)
VH: B2 VH with G24A
VL: B2 VL with F94Y
B21: humanized ICR62 antibody I-HHD / I-KC8 (antibody, human IgG1, V domains shown)
VH: B2 VH with G24A
VL: B2 VL with T56S
B22: humanized ICR62 antibody I-HHD / I-KC5 (antibody, human IgG1, V domains shown)
VH: B2 VH with G24A
VL: B2 VL with T51A
B23: humanized ICR62 antibody I-HHD / I-KC7 (antibody, human IgG1, V domains shown)
VH: B2 VH with G24A
VL: B2 VL with N53S
B24: humanized ICR62 antibody I-HHD / I-KC4 (antibody, human IgG1, V domains shown)
VH: B2 VH with G24A
VL: B2 VL with N50T
B25: humanized ICR62 antibody I-HHD / I-KC1 (antibody, human IgG1, V domains shown)
VH: B2 VH with G24A
VL: B2 VL with N30R
notes: also called I-KCl
B26: humanized ICR62 antibody I-HHD / I-KC3 (antibody, human IgG1, V domains shown)
VH: B2 VH with G24A
VL: B2 VL with N34G
B27: humanized ICR62 antibody I-HHD / I-KC2 (antibody, human IgG1, V domains shown)
VH: B2 VH with G24A
VL: B2 VL with Y32W

The first assay concerns the target T1, human epidermal growth factor receptor (EGFR) (human, UniProt P00533 25-1210).
T1 construct: whole, on cells; also called HER-1; ErbB1
Nature of the assay: flow cytometry on A431 cells. The method, then:
(§1) The purified, monomeric humanized antibody variants were tested for binding to human epidermal growth factor receptor (EGFR, also referred to in the literature as HER-1 or ErbB1) on the A431 human epidermal cell line, using a flow cytometry-based assay. 200,000 cells (e.g., from human A431 cell line) in 180 μl FACS buffer (PBS containing 2% FCS and 5 mM EDTA) were transferred to 5 ml polystyrene tubes and 20 μl 10 fold concentrated anti-EGFR antibody (primary antibody) samples (1-5000 ng/ml final concentration) or PBS only were added. After gently mixing the samples, the tubes were incubated at 4° C. for 30 min in the dark. Subsequently, samples were washed twice with FACS buffer and pelleted at 300×g for 3 min. Supernatant was aspirated off and cells were taken up in 50 μl FACS buffer and 2 μl secondary antibody (anti-Fc-specific F(ab′)2-FITC fragments (Jackson Immuno Research Laboratories, USA)) was added and the tubes were incubated at 4° C. for 30 min. Samples were washed twice with FACS buffer and taken up in 500 μl of FACS buffer for analysis by Flow Cytometry. Binding was determined by plotting the geometric mean fluorescence against the antibody concentrations.
Only the I-HHA has strongly diminished binding activity (see FIG. 2). […] In this experiment, either the light chain, the heavy chain or both chains simultaneously of the ch-ICR62 were replaced by the above mentioned humanized constructs.
(In general: In flow cytometry, cells or beads pass a laser one at a time.)
Take B1: the concentration giving a half-maximal response (EC50) was about 0.3 µg/mL.
For B2, the binding result is recorded as “binds”.
In turn, B3 gave an EC50 of about 0.3 µg/mL.
Take B4: the binding result is listed as “binds”.
The same measure, in the same setting: as for B5, the entry is “binds”.
As to B6, the “EC50 fold increase relative to ch-ICR62, I-HLA1 and I-HLA2” value (from here on “EC50 fold increase relative to ch-ICR62”) stood at 2 fold.
B7 registered an EC50 of about 0.3 µg/mL.
With B8, the binding result is on record as “binds”.
With B9, the “EC50 fold decrease relative to ch-ICR62” value worked out at 2 fold.
Take B10: the “EC50 fold increase relative to ch-ICR62” value was 2 fold.
On the same count and under the same terms, as for B11, the figure is 2 fold.
As for B12, the binding result is “binds”.
On the same count and under the same terms, with B13 the entry was “binds”; with B14, “binds”.
Still for that read-out and setting: with B15 the entry was “binds”.
Same read-out and setting: with B16 the entry was “binds”.
Turning to B17, the “EC50 fold increase relative to ch-ICR62” value was determined as 2 fold.

The next assay deals with T1, human epidermal growth factor receptor …. Nature of the assay: flow cytometry on A431 cells; chain swap with ch-ICR62 (FIG. 1). How it is done:
as §1
Only the I-HHA has strongly diminished binding activity (see FIG. 2). […]
As to B18, the binding result is “binds”.

Another assay has the same target. Nature of the assay: flow cytometry on A431 cells; light chain variants paired with I-HHD. How it is done: as §1
Each of the I-KC variant constructs (I-KCl to I-KC9) was paired with a heavy chain variable region comprising construct I-HHD (SEQ ID NO:16 and SEQ ID NO:15) and a binding assay performed according to the methods described in the previous examples. Constructs I-KCl to I-KC9 were compared to the I-KC construct (SEQ ID NO:46 and SEQ ID NO:45) for binding affinity to EGFR in A431 target cells (FIG. 29). […] Therefore, when paired with a chimeric (e.g., humanized) heavy chain construct specific for EGFR, the light chain can be entirely human (e.g., from a human light chain V gene sequence) and still retain specific binding for EGFR. In particular, CDR2 and CDR3 can be entirely in human germline form.
Regarding B19, the binding result is given as “binds”.
As to B20, the binding result is “binds”.
Take B21: the binding result is recorded as “binds”.
The same measure, in the same setting: as for B22, the entry is “binds”.
On the same count and under the same terms, with B23 the entry was “binds”.
With B24, the binding result is “binds”.
B25: the binding result was “binds”.
In the case of B26, the “EC50 fold increase relative to the I-KC construct” value came out at 10 fold.
Take B27: the binding result is on record as “binds”.

The next assay shares this target. Nature of the assay: flow cytometry on A431 cells (FIG. 4). How it is done:
as §1
FIGS. 4 and 5 compare the constructs of the series I-HLA1, I-HLA2, I-HLA3, I-HLA4, I-HLA5, and I-HLA6. […]
With B1, the “EC50 fold lower relative to I-HLA4” value was found to be 2 fold.
